Each block holds one molecule with its values, some of them ahead of it.
B1: Recombinant human transglutaminase-2 (enzyme, UniProt P21980 1-687, looked up)
chain: MAEELVLERCDLELETNGRDHHTADLCREKLVVRRGQPFWLTLHFEGRNYEASVDSLTFSVVTGPAPSQEAGTKARFPLRDAVEEGDWTATVVDQQDCTLSLQLTTPANAPIGLYRLSLEASTGYQGSSFVLGHFILLFNAWCPADAVYLDSEEERQEYVLTQQGFIYQGSAKFIKNIPWNFGQFEDGILDICLILLDVNPKFLKNAGRDCSRRSSPVYVGRVVSGMVNCNDDQGVLLGRWDNNYGDGVSPMSWIGSVDILRRWKNHGCQRVKYGQCWVFAAVACTVLRCLGIPTRVVTNYNSAHDQNSNLLIEYFRNEFGEIQGDKSEMIWNFHCWVESWMTRPDLQPGYEGWQALDPTPQEKSEGTYCCGPVPVRAIKEGDLSTKYDAPFVFAEVNADVVDWIQQDDGSVHKSINRSLIVGLKISTKSVGRDEREDITHTYKYPEGSSEEREAFTRANHLNKLAEKEETGMAMRIRVGQSMNMGSDFDVFAHITNNTAEEYVCRLLLCARTVSYNGILGPECGTKYLLNLNLEPFSEKSVPLCILYEKYRDCLTESNLIKVRALLVEPVINSYLLAERDLYLENPEIKIRILGEPKQKRKLVAEVSLQNPLPVALEGCTFTVEGAGLTEEQKTVEIPDPVEAGEEVKVRMDLLPLHMGLHKLVVNFESDKLKAVKGFRNVIIGPA
B2: Recombinant human endostatin produced in HEK 293-EBNA cells (wild type) (domain or fragment, UniProt P39060 1572-1754, looked up)
chain: HSHRDFQPVLHLVALNSPLSGGMRGIRGADFQCFQQARAVGLAGTFRAFLSSRLQDLYSIVRRADRAAVPIVNLKDELLFPSWEALFSGSEGPLKPGARIFSFDGKDVLRHPTWPQKSVWHGSDPNGRRLTESYCETWRTEAPSATGQASSLLGGRLLGQSAASCHHAYIVLCIENSFMTASK

What was measured:
[1] = biological target: Recombinant human endostatin produced in HEK 293-EBNA cells (wild type) (human) (UniProt P39060); experiment: SPR
[2] = biological target: Recombinant human endostatin expressed in Pichia pastoris (human) (UniProt P39060); experiment: SPR
[3] = biological target: NC1(XVIII) domain R27A/R139A double mutant (human); experiment: ELISA
[4] = biological target: B2; experiment: ELISA
[5] = biological target: B1; experiment: SPR

- Kd [1]: 6.8 nM
- koff [1]: 0.000765 s⁻¹
- kon [1]: 112000 M⁻¹ s⁻¹
- percent inhibition of binding by 1 mM GTP [1]: 96.7%
- Kd [2]: 5.59 nM
- koff [2]: 0.000341 s⁻¹
Molecule: Guinea pig TG-2 extracted from liver (enzyme)

- percent of the binding of the wild type NC1 domain [3]: 31%
Molecule: Recombinant human transglutaminase-2 (from UniProt P21980 1-687) (enzyme)

Molecule: B1
- fold increase of binding with 8 mM CaCl2 against no cation [4]: ~38 fold
- fold increase of binding with 8 mM MgCl2 against no cation [4]: ~2 fold
- fold increase of binding with 8 mM MnCl2 against no cation [4]: ~10 fold

Molecule: B2
- binding result [5]: binds

Source: PMC2876729 (The Biochemical journal, 2010)
